{
  "source": "paper PMC9181621",
  "biological_target": "human α2-macroglobulin tetramer, (hα2M)4 (human) (UniProt P01023)",
  "sequence (P01023 24-1474)": "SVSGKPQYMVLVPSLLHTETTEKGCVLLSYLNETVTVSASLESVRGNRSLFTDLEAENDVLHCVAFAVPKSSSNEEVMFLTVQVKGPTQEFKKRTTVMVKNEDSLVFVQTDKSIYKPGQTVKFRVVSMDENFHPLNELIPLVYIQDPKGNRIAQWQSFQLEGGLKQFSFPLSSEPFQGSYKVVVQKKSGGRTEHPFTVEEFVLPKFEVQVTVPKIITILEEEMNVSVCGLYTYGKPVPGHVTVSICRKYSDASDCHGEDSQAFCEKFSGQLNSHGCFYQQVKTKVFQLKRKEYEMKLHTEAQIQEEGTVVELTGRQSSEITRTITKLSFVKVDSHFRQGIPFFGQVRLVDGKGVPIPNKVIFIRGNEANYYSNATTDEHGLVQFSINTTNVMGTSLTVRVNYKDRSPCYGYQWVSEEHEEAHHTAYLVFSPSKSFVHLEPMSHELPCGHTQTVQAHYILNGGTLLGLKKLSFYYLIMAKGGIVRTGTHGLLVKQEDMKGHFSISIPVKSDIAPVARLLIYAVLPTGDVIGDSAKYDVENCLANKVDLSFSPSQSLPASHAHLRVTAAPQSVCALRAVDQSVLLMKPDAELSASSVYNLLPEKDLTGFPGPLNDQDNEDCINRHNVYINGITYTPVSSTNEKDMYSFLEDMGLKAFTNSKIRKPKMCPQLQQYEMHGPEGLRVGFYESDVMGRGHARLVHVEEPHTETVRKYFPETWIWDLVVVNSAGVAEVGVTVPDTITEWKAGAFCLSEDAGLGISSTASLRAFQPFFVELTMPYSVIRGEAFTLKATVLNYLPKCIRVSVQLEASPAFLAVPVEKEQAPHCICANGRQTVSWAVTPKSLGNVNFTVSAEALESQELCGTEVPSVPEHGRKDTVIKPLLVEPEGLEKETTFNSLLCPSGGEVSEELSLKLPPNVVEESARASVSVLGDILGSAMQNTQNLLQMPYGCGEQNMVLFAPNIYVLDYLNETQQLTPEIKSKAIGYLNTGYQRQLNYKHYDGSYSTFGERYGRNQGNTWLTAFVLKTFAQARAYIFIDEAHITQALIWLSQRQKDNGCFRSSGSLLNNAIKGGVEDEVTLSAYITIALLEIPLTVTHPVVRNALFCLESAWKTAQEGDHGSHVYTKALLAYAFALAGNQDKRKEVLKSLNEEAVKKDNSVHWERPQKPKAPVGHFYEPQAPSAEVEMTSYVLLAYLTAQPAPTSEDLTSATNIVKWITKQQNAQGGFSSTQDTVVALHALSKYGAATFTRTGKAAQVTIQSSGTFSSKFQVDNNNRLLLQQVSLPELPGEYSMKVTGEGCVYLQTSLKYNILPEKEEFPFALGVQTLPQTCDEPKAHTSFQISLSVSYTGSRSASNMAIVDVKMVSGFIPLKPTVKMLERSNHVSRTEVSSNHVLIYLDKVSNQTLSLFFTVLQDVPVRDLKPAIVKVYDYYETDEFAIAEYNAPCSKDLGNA",
  "experiment": "cryo-EM structure",
  "settings": "scale: trypsin molecule per disulfide-linked hα2M dimer",
  "data": [
    {"substance": "bovine trypsin (enzyme)", "values": [
      {"measurement": "stoichiometry N", "result": 1}
    ]}
  ]
}
